Data reported in paper PMC3056899.
Like-named read-outs stand apart in the source and are kept apart here.

Columns and labels:
[1] = target: T1, CFIm25 delN21 (crystal);CFIm68 N13-235 (crystal) (human;human, UniProt O43809;Q16630 21-227;13-235, |); test: X-ray crystallography
CFIm25;CFIm68 RRM = CFIm25;CFIm68 RRM (human;human, UniProt O43809;Q16630 1-227;13-235, |); test: EMSA
CFIm25 = CFIm25 (human, UniProt O43809 1-227); test: EMSA
[2] = target: T1, CFIm25 delN21 (crystal);CFIm68 N13-235 …; test: X-ray crystallography; remark: listed apart in the source

T1 sequence (O43809 21-227, chain 1 of 2): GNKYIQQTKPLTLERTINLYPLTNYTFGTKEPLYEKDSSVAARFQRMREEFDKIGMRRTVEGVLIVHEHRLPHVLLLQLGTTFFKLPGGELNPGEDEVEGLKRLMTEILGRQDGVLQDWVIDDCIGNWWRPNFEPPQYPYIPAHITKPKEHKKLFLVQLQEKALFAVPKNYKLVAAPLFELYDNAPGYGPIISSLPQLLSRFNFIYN
T1 sequence (Q16630 13-235, chain 2 of 2): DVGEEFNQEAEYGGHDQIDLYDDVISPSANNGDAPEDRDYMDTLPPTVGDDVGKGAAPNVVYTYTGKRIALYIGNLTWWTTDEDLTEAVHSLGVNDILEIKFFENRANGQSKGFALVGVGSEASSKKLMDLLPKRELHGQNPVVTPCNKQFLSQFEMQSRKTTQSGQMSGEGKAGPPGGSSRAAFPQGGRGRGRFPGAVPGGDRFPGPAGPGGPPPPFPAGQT
CFIm25, sequence (O43809 whole entry): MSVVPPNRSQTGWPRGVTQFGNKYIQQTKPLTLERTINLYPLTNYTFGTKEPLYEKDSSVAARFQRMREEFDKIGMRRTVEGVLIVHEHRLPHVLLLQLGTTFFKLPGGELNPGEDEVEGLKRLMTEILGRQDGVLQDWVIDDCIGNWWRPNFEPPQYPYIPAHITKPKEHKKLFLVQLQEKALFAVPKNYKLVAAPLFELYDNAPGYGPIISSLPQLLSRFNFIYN
CFIm25;CFIm68 RRM, sequence (O43809 whole entry, chain 1 of 2): as the sequence (O43809 whole entry) above
CFIm25;CFIm68 RRM, sequence (Q16630 13-235, chain 2 of 2): as the sequence (Q16630 13-235, chain 2 of 2) above

UUGUAU (ssRNA) [6-mer RNA]
binding result [1]: binds

GGGUGUAAAACAGAUGAUGUAU (ssRNA) [PAPOLA upstream element as printed]
Kd (CFIm25;CFIm68 RRM): 222 nM
Kd (CFIm25): 645 nM

UAUUUUGUA (ssRNA) [9-mer RNA]
binding result [2]: binds
